Source: patent US20170042969A1 (JULIUS MAXIMILIANS UNIVERSIT T W RZBURG, published 2017)

Target: ornithine decarboxylase (ODC) present in Xenopus laevis oocytes
Experiment: cell-based or functional assay

Row | Binder | IC50 for down-regulation of hSGLT1 in oocytes at about 0.25 mM intracellular AMG [nM] | IC50 for inhibition of SGLT1-mediated AMG uptake in oocytes without injection of AMG [nM] | IC50 without injection of AMG, against QSP [times] | increase of affinity at ~0.25 mM intracellular AMG against low intracellular AMG [fold] | IC50 for down-regulation of hSGLT1-mediated AMG uptake in oocytes (intracellular AMG <10 µM) [nM] | change of affinity for down-regulation of hSGLT1 when intracellular AMG is raised to 250 µM [fold]
1 | QEP [QEP (glutamine-glutamic acid-proline tripeptide)] | 0.0002 | 7.9 | ~40 | > 15000 |  | 
2 | hRS1-Reg (regulatory domain of human RS1, amino acids 16-98 of hRS1), wildtype (other, not shown: small tags and cut ends) SSGQSPDVGNPMSLARSVSASVCPIKPSDSDRIEPKAVKALKASAEFQLNSEKKEHLSLQDLSDHASSADHAPTDQSPAMPMQ |  |  |  |  | 71 | 8
